Laboratory results reported in US20220010021A1 (Sanofi, published 2022).

Experiments:
[1] = target: cell surface receptor composed of FGFR1c and co-receptor beta-Klotho (KLB) (human, UniProt P11362 22-822; Q86Z14 1-1044); assay: cell-based or functional assay; for Mean E max, Luciferase reporter gene assay: reference of the scale not given here
human beta-Klotho (KLB) = target: T1, human beta-Klotho (KLB) (human, UniProt Q86Z14 53-997); assay: BLI off-rate screening (Octet), crude supernatant;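 note: supernatants tested at 25 µg/mL, dissociation from biosensors recorded in D-PBS with 0.1% BSA over 1800 s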
T1 construct: Bought protein; also called human KLB; β-Klotho
T1 sequence (looked up): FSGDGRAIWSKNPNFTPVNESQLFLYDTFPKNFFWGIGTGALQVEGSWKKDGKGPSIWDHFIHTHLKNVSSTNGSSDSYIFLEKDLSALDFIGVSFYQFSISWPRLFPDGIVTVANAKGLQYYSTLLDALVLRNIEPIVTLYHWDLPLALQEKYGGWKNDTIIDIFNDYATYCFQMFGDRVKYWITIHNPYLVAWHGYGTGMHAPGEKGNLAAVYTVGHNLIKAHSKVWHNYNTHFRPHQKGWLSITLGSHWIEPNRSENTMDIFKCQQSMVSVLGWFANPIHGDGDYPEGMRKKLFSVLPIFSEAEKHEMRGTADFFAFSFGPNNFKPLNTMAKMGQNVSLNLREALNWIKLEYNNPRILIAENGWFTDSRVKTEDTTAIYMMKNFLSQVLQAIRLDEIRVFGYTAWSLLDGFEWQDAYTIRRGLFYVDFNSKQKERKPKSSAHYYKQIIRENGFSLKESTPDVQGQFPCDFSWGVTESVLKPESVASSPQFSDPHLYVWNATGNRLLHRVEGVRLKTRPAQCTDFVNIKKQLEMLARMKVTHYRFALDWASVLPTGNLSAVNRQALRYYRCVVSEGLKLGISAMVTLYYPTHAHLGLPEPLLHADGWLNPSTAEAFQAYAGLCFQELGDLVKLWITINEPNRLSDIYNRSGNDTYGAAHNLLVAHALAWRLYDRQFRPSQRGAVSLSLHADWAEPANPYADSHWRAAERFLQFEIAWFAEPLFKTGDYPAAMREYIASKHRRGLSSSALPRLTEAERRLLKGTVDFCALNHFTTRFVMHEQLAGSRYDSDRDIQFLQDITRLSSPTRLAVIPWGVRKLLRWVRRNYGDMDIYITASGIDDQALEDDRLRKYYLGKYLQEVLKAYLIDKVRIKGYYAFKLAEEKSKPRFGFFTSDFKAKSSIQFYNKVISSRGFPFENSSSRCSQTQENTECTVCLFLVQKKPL

Chain of cell surface receptor composed of FGFR1c and co-receptor beta-Klotho (KLB) (P11362 22-822, chain 1 of 2): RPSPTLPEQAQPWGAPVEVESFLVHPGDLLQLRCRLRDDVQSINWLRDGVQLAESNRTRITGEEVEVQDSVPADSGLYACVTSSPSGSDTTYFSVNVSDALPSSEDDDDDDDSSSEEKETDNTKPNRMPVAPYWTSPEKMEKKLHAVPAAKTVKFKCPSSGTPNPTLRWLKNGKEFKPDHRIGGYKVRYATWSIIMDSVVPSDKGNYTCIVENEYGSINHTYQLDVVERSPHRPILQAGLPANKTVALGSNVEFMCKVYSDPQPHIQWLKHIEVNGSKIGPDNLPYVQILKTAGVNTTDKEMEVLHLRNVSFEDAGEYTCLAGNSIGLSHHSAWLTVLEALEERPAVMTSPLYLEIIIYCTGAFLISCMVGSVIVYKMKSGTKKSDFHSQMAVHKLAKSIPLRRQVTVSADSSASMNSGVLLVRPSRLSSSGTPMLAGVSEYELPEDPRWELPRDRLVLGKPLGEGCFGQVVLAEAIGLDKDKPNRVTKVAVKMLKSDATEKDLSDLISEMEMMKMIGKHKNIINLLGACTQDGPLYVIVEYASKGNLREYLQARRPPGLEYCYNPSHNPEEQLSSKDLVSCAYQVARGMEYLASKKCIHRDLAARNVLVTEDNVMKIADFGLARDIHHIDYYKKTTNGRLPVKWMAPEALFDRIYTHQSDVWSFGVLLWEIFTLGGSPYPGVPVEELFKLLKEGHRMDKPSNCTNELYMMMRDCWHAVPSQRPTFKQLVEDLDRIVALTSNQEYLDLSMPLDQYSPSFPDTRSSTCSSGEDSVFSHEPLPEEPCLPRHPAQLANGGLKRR
Chain of cell surface receptor composed of FGFR1c and co-receptor beta-Klotho (KLB) (Q86Z14 whole entry, chain 2 of 2): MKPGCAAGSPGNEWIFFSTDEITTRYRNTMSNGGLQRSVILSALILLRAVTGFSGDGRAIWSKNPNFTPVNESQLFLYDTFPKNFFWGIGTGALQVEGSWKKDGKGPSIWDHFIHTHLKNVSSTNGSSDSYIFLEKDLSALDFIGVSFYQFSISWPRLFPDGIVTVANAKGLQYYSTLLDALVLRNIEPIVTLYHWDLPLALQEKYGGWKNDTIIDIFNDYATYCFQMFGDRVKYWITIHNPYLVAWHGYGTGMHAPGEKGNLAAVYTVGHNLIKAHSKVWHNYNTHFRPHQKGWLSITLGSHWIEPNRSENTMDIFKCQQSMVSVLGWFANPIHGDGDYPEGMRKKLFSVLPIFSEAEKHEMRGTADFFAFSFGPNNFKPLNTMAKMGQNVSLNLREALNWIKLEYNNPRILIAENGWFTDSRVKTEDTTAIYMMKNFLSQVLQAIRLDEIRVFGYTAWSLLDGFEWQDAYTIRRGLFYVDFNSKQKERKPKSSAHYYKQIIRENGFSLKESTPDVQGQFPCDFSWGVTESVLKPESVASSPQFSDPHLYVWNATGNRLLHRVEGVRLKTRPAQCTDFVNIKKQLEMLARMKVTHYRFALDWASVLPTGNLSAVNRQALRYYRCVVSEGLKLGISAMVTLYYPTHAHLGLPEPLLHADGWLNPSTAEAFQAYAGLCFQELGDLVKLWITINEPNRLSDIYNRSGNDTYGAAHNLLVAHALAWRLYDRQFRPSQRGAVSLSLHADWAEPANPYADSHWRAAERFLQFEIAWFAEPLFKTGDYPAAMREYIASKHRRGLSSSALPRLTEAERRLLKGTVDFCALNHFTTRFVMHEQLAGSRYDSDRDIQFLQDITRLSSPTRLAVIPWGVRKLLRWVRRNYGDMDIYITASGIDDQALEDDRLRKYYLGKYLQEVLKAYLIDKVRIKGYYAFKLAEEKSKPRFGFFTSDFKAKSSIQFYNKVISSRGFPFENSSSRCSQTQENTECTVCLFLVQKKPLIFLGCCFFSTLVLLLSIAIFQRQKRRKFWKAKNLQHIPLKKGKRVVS

Binder | Mean E max, Luciferase reporter gene assay [1] | Mean EC50, Luciferase reporter gene assay [1] | koff (human beta-Klotho (KLB))
16H7 light chain variant N93R (antibody, IgG4, V domains shown, IgG4 backbone) VH: not shown VL: SYVLTQPPSVSVAPGQTARITCGGNNIGSESVHWYQQKPGQAPVLVVYDDSDRPSGIPERFSGSNSGNTATLTISRVEAGDEADYYCQVWDGRSDHVVFGGGTKLTVLG | 100% | 0.186 nM | 5e-05 s⁻¹
16H7 light chain variant N93S (antibody, IgG4, V domains shown, IgG4 backbone) VH: not shown VL: SYVLTQPPSVSVAPGQTARITCGGNNIGSESVHWYQQKPGQAPVLVVYDDSDRPSGIPERFSGSNSGNTATLTISRVEAGDEADYYCQVWDGSSDHVVFGGGTKLTVLG | 101% | 0.105 nM | 3.4e-05 s⁻¹
16H7 light chain variant N93T (antibody, IgG4, V domains shown, IgG4 backbone) VH: not shown VL: SYVLTQPPSVSVAPGQTARITCGGNNIGSESVHWYQQKPGQAPVLVVYDDSDRPSGIPERFSGSNSGNTATLTISRVEAGDEADYYCQVWDGTSDHVVFGGGTKLTVLG | 103% | 0.161 nM | 3.1e-05 s⁻¹
16H7 light chain variant N93V (antibody, IgG4, V domains shown, IgG4 backbone) VH: not shown VL: SYVLTQPPSVSVAPGQTARITCGGNNIGSESVHWYQQKPGQAPVLVVYDDSDRPSGIPERFSGSNSGNTATLTISRVEAGDEADYYCQVWDGVSDHVVFGGGTKLTVLG | 108% | 0.139 nM | 4e-05 s⁻¹
16H7 light chain variant N93Y (antibody, IgG4, V domains shown, IgG4 backbone) VH: not shown VL: SYVLTQPPSVSVAPGQTARITCGGNNIGSESVHWYQQKPGQAPVLVVYDDSDRPSGIPERFSGSNSGNTATLTISRVEAGDEADYYCQVWDGYSDHVVFGGGTKLTVLG | 105% | 0.108 nM | 6.5e-05 s⁻¹
16H7 light chain variant S31H (antibody, IgG4, V domains shown, IgG4 backbone) VH: not shown VL: SYVLTQPPSVSVAPGQTARITCGGNNIGSEHVHWYQQKPGQAPVLVVYDDSDRPSGIPERFSGSNSGNTATLTISRVEAGDEADYYCQVWDGNSDHVVFGGGTKLTVLG | 110% | 0.158 nM | 4.5e-05 s⁻¹
16H7 light chain variant S31N (antibody, IgG4, V domains shown, IgG4 backbone) VH: not shown VL: SYVLTQPPSVSVAPGQTARITCGGNNIGSENVHWYQQKPGQAPVLVVYDDSDRPSGIPERFSGSNSGNTATLTISRVEAGDEADYYCQVWDGNSDHVVFGGGTKLTVLG | 99% | 0.124 nM | 7.6e-05 s⁻¹
16H7 light chain variant S51I (antibody, IgG4, V domains shown, IgG4 backbone) VH: not shown VL: SYVLTQPPSVSVAPGQTARITCGGNNIGSESVHWYQQKPGQAPVLVVYDDIDRPSGIPERFSGSNSGNTATLTISRVEAGDEADYYCQVWDGNSDHVVFGGGTKLTVLG | 102% | 0.097 nM | 5e-05 s⁻¹
16H7 light chain variant S51L (antibody, IgG4, V domains shown, IgG4 backbone) VH: not shown VL: SYVLTQPPSVSVAPGQTARITCGGNNIGSESVHWYQQKPGQAPVLVVYDDLDRPSGIPERFSGSNSGNTATLTISRVEAGDEADYYCQVWDGNSDHVVFGGGTKLTVLG | 97% | 0.099 nM | 9.6e-05 s⁻¹
16H7 light chain variant S51N (antibody, IgG4, V domains shown, IgG4 backbone) VH: not shown VL: SYVLTQPPSVSVAPGQTARITCGGNNIGSESVHWYQQKPGQAPVLVVYDDNDRPSGIPERFSGSNSGNTATLTISRVEAGDEADYYCQVWDGNSDHVVFGGGTKLTVLG | 100% | 0.113 nM | 5.3e-05 s⁻¹
16H7 light chain variant S51Q (antibody, IgG4, V domains shown, IgG4 backbone) VH: not shown VL: SYVLTQPPSVSVAPGQTARITCGGNNIGSESVHWYQQKPGQAPVLVVYDDQDRPSGIPERFSGSNSGNTATLTISRVEAGDEADYYCQVWDGNSDHVVFGGGTKLTVLG | 107% | 0.115 nM | 6.5e-05 s⁻¹
16H7 light chain variant S51R (antibody, IgG4, V domains shown, IgG4 backbone) VH: not shown VL: SYVLTQPPSVSVAPGQTARITCGGNNIGSESVHWYQQKPGQAPVLVVYDDRDRPSGIPERFSGSNSGNTATLTISRVEAGDEADYYCQVWDGNSDHVVFGGGTKLTVLG | 98% | 0.103 nM | 0.00012 s⁻¹
16H7 light chain variant S51T (antibody, IgG4, V domains shown, IgG4 backbone) VH: not shown VL: SYVLTQPPSVSVAPGQTARITCGGNNIGSESVHWYQQKPGQAPVLVVYDDTDRPSGIPERFSGSNSGNTATLTISRVEAGDEADYYCQVWDGNSDHVVFGGGTKLTVLG | 102% | 0.121 nM | 2.5e-05 s⁻¹
16H7 light chain variant S94A (antibody, IgG4, V domains shown, IgG4 backbone) VH: not shown VL: SYVLTQPPSVSVAPGQTARITCGGNNIGSESVHWYQQKPGQAPVLVVYDDSDRPSGIPERFSGSNSGNTATLTISRVEAGDEADYYCQVWDGNADHVVFGGGTKLTVLG | 99% | 0.107 nM | 4.6e-05 s⁻¹
16H7 light chain variant S94C (antibody, IgG4, V domains shown, IgG4 backbone) VH: not shown VL: SYVLTQPPSVSVAPGQTARITCGGNNIGSESVHWYQQKPGQAPVLVVYDDSDRPSGIPERFSGSNSGNTATLTISRVEAGDEADYYCQVWDGNCDHVVFGGGTKLTVLG | 99% | 0.138 nM | 1e-07 s⁻¹
16H7 light chain variant S94D (antibody, IgG4, V domains shown, IgG4 backbone) VH: not shown VL: SYVLTQPPSVSVAPGQTARITCGGNNIGSESVHWYQQKPGQAPVLVVYDDSDRPSGIPERFSGSNSGNTATLTISRVEAGDEADYYCQVWDGNDDHVVFGGGTKLTVLG | 103% | 0.122 nM | 3.4e-05 s⁻¹
16H7 light chain variant S94E (antibody, IgG4, V domains shown, IgG4 backbone) VH: not shown VL: SYVLTQPPSVSVAPGQTARITCGGNNIGSESVHWYQQKPGQAPVLVVYDDSDRPSGIPERFSGSNSGNTATLTISRVEAGDEADYYCQVWDGNEDHVVFGGGTKLTVLG | 100% | 0.122 nM | 1.4e-05 s⁻¹
16H7 light chain variant S94F (antibody, IgG4, V domains shown, IgG4 backbone) VH: not shown VL: SYVLTQPPSVSVAPGQTARITCGGNNIGSESVHWYQQKPGQAPVLVVYDDSDRPSGIPERFSGSNSGNTATLTISRVEAGDEADYYCQVWDGNFDHVVFGGGTKLTVLG | 100% | 0.132 nM | 1e-07 s⁻¹
16H7 light chain variant S94G (antibody, IgG4, V domains shown, IgG4 backbone) VH: not shown VL: SYVLTQPPSVSVAPGQTARITCGGNNIGSESVHWYQQKPGQAPVLVVYDDSDRPSGIPERFSGSNSGNTATLTISRVEAGDEADYYCQVWDGNGDHVVFGGGTKLTVLG | 100% | 0.146 nM | 6.8e-05 s⁻¹
16H7 light chain variant S94I (antibody, IgG4, V domains shown, IgG4 backbone) VH: not shown VL: SYVLTQPPSVSVAPGQTARITCGGNNIGSESVHWYQQKPGQAPVLVVYDDSDRPSGIPERFSGSNSGNTATLTISRVEAGDEADYYCQVWDGNIDHVVFGGGTKLTVLG | 106% | 0.126 nM | 4.3e-05 s⁻¹
16H7 light chain variant S94L (antibody, IgG4, V domains shown, IgG4 backbone) VH: not shown VL: SYVLTQPPSVSVAPGQTARITCGGNNIGSESVHWYQQKPGQAPVLVVYDDSDRPSGIPERFSGSNSGNTATLTISRVEAGDEADYYCQVWDGNLDHVVFGGGTKLTVLG | 103% | 0.169 nM | 4.4e-05 s⁻¹
16H7 light chain variant S94M (antibody, IgG4, V domains shown, IgG4 backbone) VH: not shown VL: SYVLTQPPSVSVAPGQTARITCGGNNIGSESVHWYQQKPGQAPVLVVYDDSDRPSGIPERFSGSNSGNTATLTISRVEAGDEADYYCQVWDGNMDHVVFGGGTKLTVLG | 101% | 0.117 nM | 1.2e-05 s⁻¹
16H7 light chain variant S94N (antibody, IgG4, V domains shown, IgG4 backbone) VH: not shown VL: SYVLTQPPSVSVAPGQTARITCGGNNIGSESVHWYQQKPGQAPVLVVYDDSDRPSGIPERFSGSNSGNTATLTISRVEAGDEADYYCQVWDGNNDHVVFGGGTKLTVLG | 103% | 0.133 nM | 3.3e-05 s⁻¹
16H7 light chain variant S94R (antibody, IgG4, V domains shown, IgG4 backbone) VH: not shown VL: SYVLTQPPSVSVAPGQTARITCGGNNIGSESVHWYQQKPGQAPVLVVYDDSDRPSGIPERFSGSNSGNTATLTISRVEAGDEADYYCQVWDGNRDHVVFGGGTKLTVLG | 104% | 0.123 nM | 5.7e-05 s⁻¹
